Assay [1] addresses BUNV ∆7-Gc-HA (HA-tagged head/stalk-deleted Gc glycoprotein expressed by rBUNV-∆7-Gc-HA) (Bunyamwera orthobunyavirus). Briefly: affinity purification with mass spectrometry; C6/36 (insect) cells mock-infected or infected at MOI 1, 24 hpi; anti-HA immunoprecipitation of Gc-HA, TMTpro 16plex TMT-MS of the bead fractions, three biological repeats; abundances normalised to common Gc peptides.

Assay [2] shares this target. Briefly: affinity purification with mass spectrometry; A549 (mammalian) cells mock-infected or infected at MOI 1, 24 hpi; anti-HA immunoprecipitation of Gc-HA, TMTpro 16plex TMT-MS of the bead fractions, three biological repeats; abundances normalised to common Gc peptides.

In the case of “BUNV nucleocapsid protein (NP) (from UniProt P16495 1-233) (natural protein)”, the log2 fold change of NP precipitated, WT-Gc-HA over ∆7-Gc-HA (log2 fold change) in assay [1] worked out at 2.76; in assay [2], 0.24.

The values are drawn from PMC13399505.
